The test system of this assay is PPIs identified as affected by the SH3 domain deletions. The experiment in a line: Liquid DHFR-PCA low-throughput validation of PPIs affected by SH3 deletion (Fig. S1D-E). The conditions noted are these: label = prey, liquid DHFR-PCA, prey _1 = lost, _2 = gained in screen. Format: cell-based, Saccharomyces cerevisiae. Put shortly: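 Growth at 30 °C was tracked by OD each 15 min over 72 h in agar-free PCA selection medium, starting at 0.1 OD. Cells were diploids selected after mating, first cultured 48 h with NAT and HPH in synthetic complete MSG medium, pH 6.0.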

B1: YKR048C_2 (protein, UniProt P25293 1-417, looked up)
Nucleosome assembly protein: MSDPIRTKPKSSMQIDNAPTPHNTPASVLNPSYLKNGNPVRAQAQEQDDKIGTINEEDILANQPLLLQSIQDRLGSLVGQDSGYVGGLPKNVKEKLLSLKTLQSELFEVEKEFQVEMFELENKFLQKYKPIWEQRSRIISGQEQPKPEQIAKGQEIVESLNETELLVDEEEKAQNDSEEEQVKGIPSFWLTALENLPIVCDTITDRDAEVLEYLQDIGLEYLTDGRPGFKLLFRFDSSANPFFTNDILCKTYFYQKELGYSGDFIYDHAEGCEISWKDNAHNVTVDLEMRKQRNKTTKQVRTIEKITPIESFFNFFDPPKIQNEDQDEELEEDLEERLALDYSIGEQLKDKLIPRAVDWFTGAALEFEFEEDEEEADEDEDEEEDDDHGLEDDDGESAEEQDDFAGRPEQAPECKQS
Turning to B1, the “Ratio (Deletedscore / WTscore)” value runs as follows: (bait BOI2) 1.065; (bait LSB3) 1.174.

B2: YGR281W_2 (protein, UniProt P53049 1-1477, looked up)
Oligomycin resistance …: MTITVGDAVSETELENKSQNVVLSPKASASSDISTDVDKDTSSSWDDKSLLPTGEYIVDRNKPQTYLNSDDIEKVTESDIFPQKRLFSFLHSKKIPEVPQTDDERKIYPLFHTNIISNMFFWWVLPILRVGYKRTIQPNDLFKMDPRMSIETLYDDFEKNMIYYFEKTRKKYRKRHPEATEEEVMENAKLPKHTVLRALLFTFKKQYFMSIVFAILANCTSGFNPMITKRLIEFVEEKAIFHSMHVNKGIGYAIGACLMMFVNGLTFNHFFHTSQLTGVQAKSILTKAAMKKMFNASNYARHCFPNGKVTSFVTTDLARIEFALSFQPFLAGFPAILAICIVLLIVNLGPIALVGIGIFFGGFFISLFAFKLILGFRIAANIFTDARVTMMREVLNNIKMIKYYTWEDAYEKNIQDIRTKEISKVRKMQLSRNFLIAMAMSLPSIASLVTFLAMYKVNKGGRQPGNIFASLSLFQVLSLQMFFLPIAIGTGIDMIIGLGRLQSLLEAPEDDPNQMIEMKPSPGFDPKLALKMTHCSFEWEDYELNDAIEEAKGEAKDEGKKNKKKRKDTWGKPSASTNKAKRLDNMLKDRDGPEDLEKTSFRGFKDLNFDIKKGEFIMITGPIGTGKSSLLNAMAGSMRKTDGKVEVNGDLLMCGYPWIQNASVRDNIIFGSPFNKEKYDEVVRVCSLKADLDILPAGDMTEIGERGITLSGGQKARINLARSVYKKKDIYLFDDVLSAVDSRVGKHIMDECLTGMLANKTRILATHQLSLIERASRVIVLGTDGQVDIGTVDELKARNQTLINLLQFSSQNSEKEDEEQEAVVAGELGQLKYESEVKELTELKKKATEMSQTANSGKIVADGHTSSKEERAVNSISLKIYREYIKAAVGKWGFIALPLYAILVVGTTFCSLFSSVWLSYWTENKFKNRPPSFYMGLYSFFVFAAFIFMNGQFTILCAMGIMASKWLNLRAVKRILHTPMSYIDTTPLGRILNRFTKDTDSLDNELTESLRLMTSQFANIVGVCVMCIVYLPWFAIAIPFLLVIFVLIADHYQSSGREIKRLEAVQRSFVYNNLNEVLGGMDTIKAYRSQERFLAKSDFLINKMNEAGYLVVVLQRWVGIFLDMVAIAFALIITLLCVTRAFPISAASVGVLLTYVLQLPGLLNTILRAMTQTENDMNSAERLVTYATELPLEASYRKPEMTPPESWPSMGEIIFENVDFAYRPGLPIVLKNLNLNIKSGEKIGICGRTGAGKSTIMSALYRLNELTAGKILIDNVDISQLGLFDLRRKLAIIPQDPVLFRGTIRKNLDPFNERTDDELWDALVRGGAIAKDDLPEVKLQKPDENGTHGKMHKFHLDQAVEEEGSNFSLGERQLLALTRALVRQSKILILDEATSSVDYETDGKIQTRIVEEFGDCTILCIAHRLKTIVNYDRILVLEKGEVAEFDTPWTLFSQEDSIFRSMCSRSGIVENDFENRS
As for B2, the “Ratio (Deletedscore / WTscore)” value was found to be 0.9762 (bait BOI1), 1.357 (bait BZZ1-2) and 1.455 (bait LSB3).

B3: YDR379W_2 (protein, UniProt Q06407 1-1009, looked up)
Rho-type GTPase-activating …: MSADPINDQSSLCVRCNKSIASSQVYELESKKWHDQCFTCYKCDKKLNADSDFLVLDIGTLICYDCSDKCTNCGDKIDDTAIILPSSNEAYCSNCFRCCRCSNRIKNLKYAKTKRGLCCMDCHEKLLRKKQLLLENQTKNSSKEDFPIKLPERSVKRPLSPTRINGKSDVSTNNTAISKNLVSSNEDQQLTPQVLVSQERDESSLNDNNDNDNSKDREETSSHARTVSIDDILNSTLEHDSNSIEEQSLVDNEDYINKMGEDVTYRLLKPQRANRDSIVVKDPRIPNSNSNANRFFSIYDKEETDKDDTDNKENEIIVNTPRNSTDKITSPLNSPMAVQMNEEVEPPHGLALTLSEATKENNKSSQGIQTSTSKSMNHVSPITRTDTVEMKTSTSSSTLRLSDNGSFSRPQTADNLLPHKKVAPSPNKKLSRSFSLKSKNFVHNLKSKTSEMLDPKHPHHSTSIQESDTHSGWGVSSTHTNIRKSKAKKNPVSRGQSDSTIYNTLPQHGNFTVPEFNHKKAQSSLGSISKKQNSNDTATNRRINGSFTSSSSGHHIAMFRTPPLESGPLFKRPSLSSESAHHRSSSLQTSRSTNALLEDDSTKVDATDESATSLEKDFYFTELTLRKLKLDVRELEGTKKKLLQDVENLRLAKERLLNDVDNLTREKDKQSASSRESLEQKENIATSITVKSPSSNSDRKGSISNASPKPRFWKIFSSAKDHQVGDLESQQRSPNSSSGGTTNIAQKEISSPKLIRVHDELPSPGKVPLSPSPKRLDYTPDGSHLYGSSLQARCAYEKSTVPIIIRCCIDRIEKDDIGLNMEGLYRKSGSQTLVEEIENEFAQNNSLHSDTLSPKLNALLNQDIHAVASVLKRYLRKLPDPVLSFSIYDALIDLVRNNQLIERLPLNNDKFLDSPQKVTIYEMVLKSLLEIFKILPVEHQEVLKVLAAHIGKVRRCSERNLMNLHNLSLVFAPSLIHDFDGEKDIVDMKERNYIVEFILGNYRDIFKQA
Consider B3, for which the “Ratio (Deletedscore / WTscore)” value (bait BOI1) came to 0.9152.

B4: YCR002C_2 (protein, UniProt P25342 1-322, looked up)
Cell division control protein …: MDPLSSVQPASYVGFDTITNQIEHRLLKKGFQFNIMVVGQSGLGKSTLINTLFASHLIDSATGDDISALPVTKTTEMKISTHTLVEDRVRLNINVIDTPGFGDFIDNSKAWEPIVKYIKEQHSQYLRKELTAQRERFITDTRVHAILYFLQPNGKELSRLDVEALKRLTEIANVIPVIGKSDTLTLDERTEFRELIQNEFEKYNFKIYPYDSEELTDEELELNRSVRSIIPFAVVGSENEIEINGETFRGRKTRWSAINVEDINQCDFVYLREFLIRTHLQDLIETTSYIHYEGFRARQLIALKENANSRSSAHMSSNAIQR
Take B4: the “Ratio (Deletedscore / WTscore)” value came out at 1.169 (bait BZZ1-2), 0.2463 (bait HOF1) and 1.096 (bait LSB3).

B5: YAR042W_2 (protein, UniProt P35845 1-1188, looked up)
Oxysterol-binding protein …: MEQPDLSSVAISKPLLKLKLLDALRQGSFPNLQDLLKKQFQPLDDPNVQQVLHLMLHYAVQVAPMAVIKEIVHHWVSTTNTTFLNIHLDLNERDSNGNTPLHIAAYQSRGDIVAFLLDQPTINDCVLNNSHLQAIEMCKNLNIAQMMQVKRSTYVAETAQEFRTAFNNRDFGHLESILSSPRNAELLDINGMDPETGDTVLHEFVKKRDVIMCRWLLEHGADPFKRDRKGKLPIELVRKVNENDTATNTKIAIDIELKKLLERATREQSVIDVTNNNLHEAPTYKGYLKKWTNFAQGYKLRWFILSSDGKLSYYIDQADTKNACRGSLNMSSCSLHLDSSEKLKFEIIGGNNGVIRWHLKGNHPIETNRWVWAIQGAIRYAKDREILLHNGPYSPSLALSHGLSSKVSNKENLHATSKRLTKSPHLSKSTLTQNDHDNDDDSTNNNNNKSNNDYDDNNNNNNNDDDDYDDDDESRPLIEPLPLISSRSQSLSEITPGPHSRKSTVSSTRAADIPSDDEGYSEDDSDDDGNSSYTMENGGENDGDEDLNAIYGPYIQKLHMLQRSISIELASLNELLQDKQQHDEYWNTVNTSIETVSEFFDKLNRLTSQREKRMIAQMTKQRDVNNVWIQSVKDLEMELVDKDEKLVALDKERKNLKKMLQKKLNNQPQVETEANEESDDANSMIKGSQESTNTLEEIVKFIEATKESDEDSDADEFFDAEEAASDKKANDSEDLTTNKETPANAKPQEEAPEDESLIVISSPQVEKKNQLLKEGSFVGYEDPVRTKLALDEDNRPKIGLWSVLKSMVGQDLTKLTLPVSFNEPTSLLQRVSEDIEYSHILDQAATFEDSSLRMLYVAAFTASMYASTTNRVSKPFNPLLGETFEYARTDGQYRFFTEQVSHHPPISATWTESPKWDFYGECNVDSSFNGRTFAVQHLGLWYITIRPDHNISVPEETYSWKKPNNTVIGILMGKPQVDNSGDVKVTNHTTGDYCMLHYKAHGWTSAGAYEVRGEVFNKDDKKLWVLGGHWNDSIYGKKVTARGGELTLDRIKTANSATGGPKLDGSKFLIWKANERPSVPFNLTSFALTLNALPPHLIPYLAPTDSRLRPDQRAMENGEYDKAAAEKHRVEVKQRAAKKEREQKGEEYRPKWFVQEEHPVTKSLYWKFNGEYWNKRKNHDFKDCADIF
As to B5, under “bait ABP1”, the “Ratio (Deletedscore / WTscore)” value turned out to be 1.203.

B6: YBL039C_2 (protein, UniProt P28274 1-579, looked up)
CTP synthase 1: MKYVVVSGGVISGIGKGVLASSTGMLMKTLGLKVTSIKIDPYMNIDAGTMSPLEHGECFVLDDGGETDLDLGNYERYLGVTLTKDHNITTGKIYSHVIAKERKGDYLGKTVQIVPHLTNAIQDWIERVAKIPVDDTGMEPDVCIIELGGTVGDIESAPFVEALRQFQFKVGKENFALIHVSLVPVIHGEQKTKPTQAAIKGLRSLGLVPDMIACRCSETLDKPTIDKIAMFCHVGPEQVVNVHDVNSTYHVPLLLLEQKMIDYLHARLKLDEISLTEEEKQRGLELLSKWKATTGNFDESMETVKIALVGKYTNLKDSYLSVIKALEHSSMKCRRKLDIKWVEATDLEPEAQESNKTKFHEAWNMVSTADGILIPGGFGVRGTEGMVLAARWARENHIPFLGVCLGLQIATIEFTRSVLGRKDSHSAEFYPDIDEKNHVVVFMPEIDKETMGGSMRLGLRPTFFQNETEWSQIKKLYGDVSEVHERHRHRYEINPKMVDELENNGLIFVGKDDTGKRCEILELKNHPYYIATQYHPEYTSKVLDPSKPFLGLVAASAGILQDVIEGKYDLEAGENKFNF
In the case of B6, the “Ratio (Deletedscore / WTscore)” value is reported as 1.633 (bait BZZ1-2), 1.248 (bait HSE1) and 1.147 (bait LSB3).

B7: YKL051W_2 (protein, UniProt P35735 1-353, looked up)
Protein SFK1: MIQFKSPGNWLFIVPWIAFIPWYGMLIAMLICWASQGHPIYWFMHSEQFPVYISDIGATNLRPLFISCAGWQGLGYVITVALEFFQRSGYLPFQLKKKDPSISDSTSYAEKLHSGKYLMPPYYTKDERNLIFAAFVLGSIGELALLFSSIFSTALYHRVHIAMVSVFVVFMFLSTCCLIAEYFLMGRHYASVHPLASPHFNPQSSEKSFNQDYNTVDELPWYKWKGHVWNKFTISATLKVIWLTLAVVWAICFGAINDRSKSACFEWLLAFWFGIIFMILSADFYLGGRYRQSRYFNHVESFSGYYKYDKALGLYHSEDVLPSDDNAGVIATETASSNIYNNSSSNESIQVVV
Take B7: the “Ratio (Deletedscore / WTscore)” value is given as 0.8707 (bait BOI1), 1.125 (bait BZZ1-2) and 1.525 (bait LSB3).

Source of the values: PMC7954794, “Protein context shapes the specificity of SH3 domain-mediated interactions in vivo” (Nature Communications, 2021).
